Assay: label from the status in PepcDB records

Question: With “MTEIERKFLVATFPDGELHAVPLRQGYLTTPTDSIELRLRQQGTEYFMTLKSEGGLSRQEYEIQIDVTQFEMLWPATEGRRVEKTRYSGKLPDGQLFELDVFAGHLSPLMLVEVEFLSEDAAQAFIPPPWFGEEVTEDKRYKNKALALSIP” as the sequence, how does the protein production read?
Answer: not failed

Question: For “MTEKKIDFKKEEKKFYAPKRKPERIFVPEMNFLMVDGKGDPDGEEYQKAVQSLYAIAYTIKMSKMGETRLDGYSDFVVPPLEGFWWSEGKFDLKDRDAWLWTSILRQPDFVTEEVLEWAKEVARKKKPDV”, which protein production is on record?
Answer: failed

Question: With “MTEKRRRLPRPEKAILWPASYLHHRSVTQQLPIMSTPHTDFFGLTIPFMQLLGVVPEHSGNGTARTRLPARADLVNSRGDIHGGTLMSVLDFTLGAAIRGDTPEVGVATIDMNTSFMSPGRGDLVIETRCLRRGASIAFCEGEIRDSAGELVAKATATFKIIQRRPGGD” as the sequence, how does the protein production read?
Answer: failed

Question: For “MTENTSSFPRSSGELHEFTRADVWGGFTQLLPLSFFVVVFGLAFGVAAVQTGLDAFPTLLMSTLVFAGASQFATLEMWGAEVPLVPVLITVFAINARHLLMGATLYPWLRQLPPHKRYGIMLLASDANWAMAMNAFGKKEPGFGLLVGGGLALWGFWIVGTWMGIYFGGAIKDPVSLGLDMVMGCFLLSMVAGGPKNLRIFAIWGMAAASSLMAYWYLPENSHVVVGAIAGGILGACWKEKKA”, which protein production is on record?
Answer: failed

Question: Which protein production does the source give for “MTEPCRIIGVLDNGAEGLTPQALAYLHAADLVIGAGRTLALFEAHLAEGAECRDLGGRLAQVPDWIAEARRNGKRVAVLATGDPLCHGIAGYLGNKLGREALEILPNVSTIQLACARLGLPWQDMAIGSVHSRDAGDWTPGAGPGHGLYGLLQKLRQADLMGVFTSPENGPDRIARMLRAEGLDEEFEMAIAERLLQADERIHGWLGIAEAAGQCFADPNVVLLRRRPCEREALFGLPDTRFRQRAPDKGLITKREVRAVSLARLALRPDSIVWDIGAGSGAVGLEAARLCPLGHVYAIEKNVEDFAIALSNRESLRVSNYTLVQAKAPRELDGWPDPHGVFIGGSGGELRELIQICLRRLRTGGWLVMNFATLENLAAAVDALKASGASWDVTQLQAARSRPILDMHRLQAENPVWIVCAQRENNE” here?
Answer: failed

Question: With “MTEQDIYKLLADGERVTLECKKAQNGVPNSLWETYSAFANTNGGILLLGVYENVAEKDSLMRFTITGVEDADKIRKDLWNTINSREKVNVNLLHDEDVQTISVNGKEVIAINVPRADYNLRPVYINNNLMRGTYRRNHEGDYHCTEQMIKMMVRDAYEDGNDRMFLEYYTMDDIDIPTLEGYRVMFKTNNPEHIWNSLDHKEFLMQLGGYVVNRKDGTEGLTIAGLLMFGKGLPVRERFDYLRMDYIDKSNLIGDQRYSDRLTYDGTWENNLFNFIRMVVPRLTRDIPRPFQMDGIIRKDDTPQHKAVREAFTNMIIHADLMLNGLLRVEKYDDRFVLSNPGLLKLPVEQIYAGGESKARNQRMQHMLRMIGYGENLGSGFPLILSAWNEKHWLKPELVEQPELMQVKLILHIENRVYVTKDVTKDVTKELTERQQIILEFMQADGTITISEMSQKTNVTERTIKRDIESLTEKGILSREGGRKEGRWVIRKILEHHHHHH” as the sequence, how does the protein production read?
Answer: not failed

Question: With “MTERFDCHHCNESLFGKKYILREESPYCVVCFETLFANTCEECGKPIGCDCKDLSYKDRHWHEACFHCSQCRNSLVDKPFAAKEDQLLCTDCYSNEYSSKCQECKKTIMPGTRKMEYKGSSWHETCFICHRCQQPIGTKSFIPKDNQNFCVPCYEKQHAMQCVQCKKPITTGGVTYREQPWHKECFVCTACRKQLSGQRFTARDDFAYCLNCFCDLYAKKCAGCTNPISGLGGTKYISFEERQWHNDCFNCKKCSLSLVGRGFLTERDDILCPDCGKDI” as the sequence, how does the protein production read?
Answer: failed

Question: For “MTEVNLNIYSPRWGRHETYIVELHKDYMEISMGAVTIKATYSENQDPEWSEETLQDIMNNDSVYPPEITQNLFQHAWLEWRKGALDNDEVTRELELVAQWVNKVTEAKPNSDFWRKYF”, which protein production is on record?
Answer: not failed

Question: For “MTFASPDDVIRRFDEQNYLLDTGTASAIYLAVTLGRPLLLEGEPGVGKTTAAKTLAVVLDTTLIRLQCYEGLTANEALYDWNYQRQLLSIRLAEARGKGISDISEADLYTEAYLVDRPILRCVRHRGPTPPVLLIDEIDRADDEFEALLLEFLGESAVTVPELGTFLAECPPIAVLTSNRSRDLHDALRRRCLYHWIDYPEPDRAAAIVRRTVPGATAPLIENATQFVCTARDLDLDKPPGVAETIDWVAALVALGVADLTAADSSPALASLGALAKTPDDRTQIRDAYQAFTECSHA”, which protein production is on record?
Answer: failed

Question: For “MTFFIFLLACSAAAATGIIFKPGAWYESLQKPAFTPPNWAFPVAWTTIYLLLAWAGYRLTLLPGSQTVLALWAAQIALNTLWTPVFFGANRIAAAMVILALLWIVVATMIVMALQLDIITGLILFPYLVWLSVAAALNFSILRHNR”, which protein production is on record?
Answer: failed

Question: With “MTFPPPDPAVAPPAEPASRAPHGRPATSGQSASATTVGSGAPLPASSALASTPSQAGPTGRKRPGQSTVTARTGAPNLPDPLGDNVVGERAVVPPIQQGKSRTALTNELNAEPVAGTVPAAPGGDLFIDAVLAQSYRHFFGPTSQPAVPPRQQVISITRLMEKLAYLKPADQALVREAFQFSDEAHLGQYRQSGEPYITHPVAVAELCADWKLDVQSIMAALLHDVMEDQGITKSELAEKFGPKVSELVDGLTKLDKLEFQSREQAQAESFRKMLLAMARDVRVILVKLADRTHNMRTLDFVPPEKRRRIALETMEIYAPIAHRLGLNTIYRELQELSFKVGSPFRYATLEKAVKAARGNRREVVKRILEAAQSALAGAGIVAELSGREKTLYSIYRKMHDKQLSFSQVLDVYGFRVVVETQMHCYMAMGALHGLYKPMPGKFKDYIAIPKINGYQSLHTTLVGPFGTPVEFQIRTRGMHQIAEAGVAAHWMYKHQADHANDIQQQAHQWLQSLLDIQSQTGDSQEFLEHVKIDLFPDAVYVFTPKGHIRALPRGATALDFAYAVHSDLGNQCVAVKINNELLPLRTELKSGDIVEVVTAPYSKPNPSWLAFVRTGKARAAIRHYLKTTKLDEAIQLGERLLEQSTRQLGIELKAVPQSVWDRMIQWTGNKLKEDIFADLALGRRVPAVVARRMEILLQELSGDVDSALLAAVQTFAGEDAPAVPITGDEGMSMIFSACCRPIPGDSIVGYLGKGEGLQIHVQDCKVAKRLHSKDPEHWIEVMWAKKTTRAFDVSIKIMVRNVKGIVARVAADLTSADANVAHVAMEPQQGGHQEATYMQFVIQVQNRLHLANVMRALRRNPDVIRIFRDRNDG” as the sequence, how does the protein production read?
Answer: failed

Question: For “MTFPVIGVVGGGQLARMMAPPATALGFELRVLAEGEDVSAVAAVATAPIGDYKDLDALLEFSKGLDVMTFDHEHVPTQHLQALLDAGVNVQPGPDALVNAQDKLVMRAAIDRLGLPNPEWSAVNTVDELVAFGERIGWPVVLKTPRGGYDGKGVRMVDSADDALETADWFQAMSPLLAEAKVEFSRELSALVARSPSGESRAWPVVHTIQVDGVCDEVIAPAQNISVEVAAAAEEAALRIANELGVTGVMAAELFETPGVGVGFLINELAMRPHNTGHWTQDGSITSQFEQHLRAVLDLPLGATDALAPVVVMKNFLGGDNQDLFKAFPMALAFEPAAKVHSYGKSVRPGRKIGHVNLVGSSVSDVDSVRQRATAVANIIRDGRKPEQTTLEETA”, which protein production is on record?
Answer: failed

Question: For “MTFRDLLSVSFEGPRPDSSAGGSSAGGGGGSAGGAAPSEGPAVGGVPGGAGGGGGVVGAGSGEDNRSSAGEPGSAGAGGDVNGTAAVGGLVVSAQGVGVGVFLAAFILMAVAGNLLVILSVACNRHLQTVTNYFIVNLAVADLLLSATVLPFSATMEVLGFWAFGRAFCDVWAAVDVLCCTASILSLCTISVDRYVGVRHSLKYPAIMTERKAAAILALLWVVALVVSVGPLLGWKEPVPPDERFCGITEEAGYAVFSSVCSFYLPMAVIVVMYCRVYVVARSTTRSLEAGVKRERGKASEVVLRIHCRGAATGADGAHGMRSAKGHTFRSSLSVRLLKFSREKKAAKTLAIVVGVFVLCWFPFFFVLPLGSLFPQLKPSEGVFKVIFWLGYFNSCVNPLIYPCSSREFKRAFLRLLRCQCRRRRRRRPLWRVYGHHWRASTSGLRQDCAPSSGDAPPGAPLALTALPDPDPEPPGTPEMQAPVASRRKPPSAFREWRLLGPFRRPTTQLRAKVSSLSHKIRAGGAQRAEAACAQRSEVEAVSLGVPHEVAEGATCQAYELADYSNLRETDI”, which protein production is on record?
Answer: failed

Question: Which protein production does the source give for “MTFSAFFQTIDDYSFRPMIPSFIRLLRFTGLFIAIFAPALYIAMISFHYEVIPLKLLLTIGESRAKIPFPPILEALLMELVLEMLREAAVRLPGPVGQTIGVVGGIVIGQAAVQAGIVSNVMVIVVSITAVASFIIPNLEMSAGIRLLRFPMMIIASLFGVIGIMVGMAIIIIHILSMESLGVPYGSPFSPLFASDLKDILIRLPWKIMKKRPLSLNLKQENRQSDIEGTEEDK” here?
Answer: failed

Question: For “MTGADHAHTRRRPLTGPLVKSLVFVVVTALATTVLGLSVAGTSVDSGTGTSTYKALFTDVTGLVDGDSVRISGVTVGEVTDVRVVDRRTAQVTFTVRDDRTLPRSTTAAVKYLNMVGQRYVSLGRGSGDLAGTLPEGGTVPLDRTTPALDLTLLFNGFKPLFEGLSPKDVNDLAGSIVQVLQGEGATVDSLIRHVGSLGTTVAAKDKVIGEVVENLTTVLDTLNDREDGFDDLVVTLQKLVTGFNQDRKPLGEAVAAMGDLTTVTAGLLEDGRAPLKKDVQELGRLSAGLGEHTPQIEDFLEKSPAKMTALARLSSYGSWFNLYLCEARVSGVSTSDGSKPPTGIAITESRCRGLEHHHHHH”, which protein production is on record?
Answer: failed

Question: For “MTGAVETESMKTVRIREKIKKFLGDRPRNTAEILEHINSTMRHGTTSQQLGNVLSKDKDIVKVGYIKRSGILSGGYDICEWATRNWVAEHCPEWTEGQPIILNEEGDFTLGPLPE”, which protein production is on record?
Answer: not failed

Question: For “MTGEWKECKLREIASEIKSGGTPSTKHQEYYGGIIPWLNTKEIHFNRIRDTDIKITEGGLNNSSAKWVKENSIIVAMYGATAGKIAINKIPLTTNQACCNITPDSEKADYNFVYYNLCHRYDELVNLSCGAAQQNLNVGLITNLDIILPPITEQCAIASVLSSLDDKIDLLHRQNKTLEAMAETLFRQWFVEEADEDWEEGFLPDEFDFTMGQSPPGTSYNQEGVGKPMFQGNADFGFRFPEERVYTTEPTRLAYPHDTLISVRAPVGAQNMAKVECCIGRGVSAFRYKANNDFYTYTYFKLRSLMDEIKKFNDEGTVFGSISKTDFLQMGIAIPPEDIIEKFEIHAKPLNDKVIENCIQIKLLEVMRDTLLPKLMSGEVRVEG”, which protein production is on record?
Answer: failed

Question: Which protein production does the source give for “MTGFDADDAAALIQSYVDDHGLLSFLGVSVEDASDGEMRLRIPYHEKLTNHGPGEGDVHGGIAATLIDTAGGLAVRSALPKPVAANVATIDLNVSYLRPARGDLIADASVVRVGSTVGVAEISVVTPADTADAEPTEVAVGRGSFRVFRDDLEHHHHHH” here?
Answer: failed

Question: For “MTGHRPACPPIPADVYTRLERRIGRCHLNQRLGIEHDFEARIFGQGRTFFHIENWNRLHTLLRRLLKLSLLYRPGQRAARRIEIRRNEFTLPHLPEAFEGYTLLHISDLHLDMAGDLPDALIRAIGQAGHYDACVLTGDFRARTFGPYRGAIDGLAQVRTHIDKPVFAILGNHDTIRMTPEIEDLGIGVLLNEAREIRQDGASIFLAGVDDPHYYRADNIEKAADPIPQGAVSILLSHSPELYRHAAYADFDIMLCGHTHGGQICLPGGIALTLNARCPRAFGRGYWRYHRMQGYTSAGSGVSILDIRLNCPPEITLHRLSRHRLSKGGCECGGGKGLEHHHHHH”, which protein production is on record?
Answer: not failed

Reference: a protein production outcome set (Wang et al. 2014)
